For one experiment, the target named is HLA-A*01:01. As to the kind of experiment: IEDB peptide-MHC binding, purified MHC/direct/fluorescence; filed as Kd, often an IC50 or EC50 that approximates it; ≥ and ≤ were set here for values at or beyond the usual limits of such assays.
Experiment [1] addresses HLA-A*02:01. The description is as above.
The next experiment concerns the target HLA-A*03:01. The description is as above.
In a further experiment the target is HLA-A*11:01. The experiment is described as above.
For another experiment, the target named is HLA-A*24:03. The experiment is described as above.
Another experiment concerns the target HLA-A*26:01. Described as above.
Another experiment concerns the target HLA-A*30:01. Described as above.
Another experiment concerns the target HLA-A*31:01. The description is as above.
A further experiment addresses HLA-A*69:01. Described as above.
In the next experiment the target is HLA-B*07:02. The experiment is described as above.
The target in experiment [2] is HLA-B*08:01. Described as above.
The target in experiment [3] is HLA-B*15:01. Described as above.
A further experiment has as its target HLA-B*27:05. The description is as above.
Experiment [4] has as its target HLA-B*35:01. The description is as above.
The next experiment concerns the target HLA-B*40:01. Described as above.
The target of a further experiment is HLA-B*44:02. The description is as above.
Experiment [5] concerns the target HLA-B*58:01. Described as above.
Experiment [6] has as its target HLA-B*08:01. As to the kind of experiment: IEDB peptide-MHC binding, purified MHC/competitive/fluorescence; filed as Kd, often an IC50 or EC50 that approximates it; ≥ and ≤ were set here for values at or beyond the usual limits of such assays.
The next experiment addresses HLA-C*03:03. As to the kind of experiment: IEDB peptide-MHC binding, purified MHC/direct/fluorescence; filed as Kd, often an IC50 or EC50 that approximates it; ≥ and ≤ were set here for values at or beyond the usual limits of such assays. The settings on record: source organism: Escherichia coli O139:H28 str. E24377A.
Another experiment addresses HLA-C*05:01. The experiment is described as above. Conditions: source organism: Escherichia coli O139:H28 str. E24377A.
In experiment [7] the target is HLA-B*15:01. As to the kind of experiment: IEDB peptide-MHC binding, purified MHC/competitive/fluorescence; filed as Kd, often an IC50 or EC50 that approximates it; ≥ and ≤ were set here for values at or beyond the usual limits of such assays. The settings on record: source organism: Escherichia coli O139:H28 str. E24377A.
For experiment [8], the target named is HLA-B*35:01. The description is as above. Conditions: source organism: Escherichia coli O139:H28 str. E24377A.
Experiment [9] concerns the target HLA-B*58:01. Described as above. The settings on record: source organism: Escherichia coli O139:H28 str. E24377A.
In experiment [10] the target is HLA-A*02:01. Described as above. Conditions: source organism: Francisella tularensis subsp. holarctica OSU18.
Another experiment concerns the target HLA-A*02:16. The description is as above. Conditions: source organism: Francisella tularensis subsp. holarctica OSU18.
For another experiment, the target named is HLA-C*07:02. Put plainly: IEDB peptide-MHC binding, purified MHC/direct/fluorescence; filed as Kd, often an IC50 or EC50 that approximates it; ≥ and ≤ were set here for values at or beyond the usual limits of such assays.
The next experiment deals with HLA-C*14:02. Described as above.
In a further experiment the target is HLA-C*15:02. The description is as above. The settings on record: source organism: Salmonella enterica subsp. enterica serovar Paratyphi B str. SPB7.
Setting [11] is: source organism: Vibrio cholerae.
The mark [12] stands for this setting: source organism: Escherichia coli O139:H28 str. E24377A.
[13] abbreviates: source organism: Coxiella burnetii.
Where [14] appears, read: source organism: Yersinia pestis.
Setting [15] is: source organism: Vibrio vulnificus.
The mark [16] stands for this setting: source organism: Salmonella enterica subsp. enterica serovar Paratyphi B str. SPB7.
Where [17] appears, read: source organism: Vaccinia virus Copenhagen.

The results in this text go back to the Immune Epitope Database (IEDB).

Consider FPRSAERAG, for which the Kd with HLA-A*01:01 (setting [11]), in the experiment with HLA-A*02:01 [1] (setting [11]), with HLA-A*03:01 (setting [11]), with HLA-A*11:01 (setting [11]), with HLA-A*24:03 (setting [11]) and with HLA-A*26:01 (setting [11]) was at least 20 µM throughout. Further, the Kd (usually the constant that tells how readily two partners part at equilibrium) was at least 10 µM with HLA-A*30:01 (setting [11]); at least 20 µM with HLA-A*31:01 (setting [11]); at least 20 µM in the experiment with HLA-A*69:01 (setting [11]); 0.201 µM with HLA-B*07:02 (setting [11]); at least 20 µM with HLA-B*08:01 [2] (setting [11]); at least 20 µM in the experiment with HLA-B*15:01 [3] (setting [11]). The dissociation constant (Kd) in the experiment with HLA-B*27:05 (setting [11]) was at least 20 µM; with HLA-B*35:01 [4] (setting [11]) it was 0.0434 µM; with HLA-B*40:01 (setting [11]) it was at least 20 µM; in the experiment with HLA-B*44:02 (setting [11]), at least 20 µM; with HLA-B*58:01 [5] (setting [11]), at least 20 µM.

Sequence QLKYKYPAL returned a Kd with HLA-B*08:01 [6] (source organism: Influenza A virus (A/Tokyo/1566/98(H3N2))) of 0.0679 µM. This counts as double-digit nanomolar.

With YALATQVEF, the Kd in the experiment with HLA-C*03:03 was at most 0.001 µM; with HLA-C*05:01 it was 2.65 µM; in the experiment with HLA-B*08:01 [6] (setting [12]) it was 3.72 µM; in the experiment with HLA-B*15:01 [7], 0.0413 µM; with HLA-B*35:01 [8], at most 0.0001 µM; in the experiment with HLA-B*58:01 [9] it was 0.0045 µM.

SYGNANVSF: the Kd was 1.81 µM with HLA-A*01:01 (setting [13]); at least 20 µM with HLA-A*02:01 [1] (setting [13]); at least 20 µM with HLA-A*03:01 (setting [13]); at least 5 µM in the experiment with HLA-A*11:01 (setting [13]); at least 20 µM in the experiment with HLA-A*26:01 (setting [13]); at least 20 µM with HLA-A*31:01 (setting [13]). Also, the Kd with HLA-A*69:01 (setting [13]) is at least 20 µM; in the experiment with HLA-B*07:02 (setting [13]), at least 20 µM; with HLA-B*08:01 [2] (setting [13]) it was at least 20 µM; with HLA-B*15:01 [3] (setting [13]), 1.14 µM; with HLA-B*27:05 (setting [13]), at least 20 µM; with HLA-B*35:01 [4] (setting [13]), 0.264 µM. Besides, the Kd in the experiment with HLA-B*40:01 (setting [13]), with HLA-B*44:02 (setting [13]) and in the experiment with HLA-B*58:01 [5] (setting [13]) was at least 20 µM in each case.

In the case of VPRVHNQPQ, the Kd with HLA-A*01:01 (setting [14]), in the experiment with HLA-A*02:01 [1] (setting [14]), in the experiment with HLA-A*03:01 (setting [14]), with HLA-A*11:01 (setting [14]), with HLA-A*24:03 (setting [14]) and with HLA-A*26:01 (setting [14]) was at least 20 µM throughout. Also, the dissociation constant (Kd) in the experiment with HLA-A*30:01 (setting [14]) was at least 20 µM; with HLA-A*31:01 (setting [14]), at least 20 µM; with HLA-A*69:01 (setting [14]), at least 20 µM; with HLA-B*07:02 (setting [14]), 0.0437 µM; in the experiment with HLA-B*08:01 [2] (setting [14]), 5.69 µM; with HLA-B*15:01 [3] (setting [14]), at least 20 µM. Further, the Kd with HLA-B*27:05 (setting [14]), in the experiment with HLA-B*40:01 (setting [14]), with HLA-B*44:02 (setting [14]) and with HLA-B*58:01 [5] (setting [14]) was at least 20 µM each time.

As to VNGVKGIQF, the Kd with HLA-A*01:01 (setting [15]), in the experiment with HLA-A*02:01 [1] (setting [15]), in the experiment with HLA-A*03:01 (setting [15]), with HLA-A*11:01 (setting [15]), in the experiment with HLA-A*24:03 (setting [15]) and with HLA-A*26:01 (setting [15]) was at least 20 µM each time. The Kd in the experiment with HLA-A*30:01 (setting [15]), with HLA-A*31:01 (setting [15]), in the experiment with HLA-A*69:01 (setting [15]), in the experiment with HLA-B*08:01 [2] (setting [15]), in the experiment with HLA-B*15:01 [3] (setting [15]) and with HLA-B*27:05 (setting [15]) was at least 20 µM each time. In addition, the Kd with HLA-B*35:01 [4] (setting [15]) was 1 µM; with HLA-B*40:01 (setting [15]), at least 20 µM; in the experiment with HLA-B*44:02 (setting [15]) it was at least 20 µM; with HLA-B*58:01 [5] (setting [15]), at least 20 µM.

For the sequence FGLLPEHYV, the Kd in the experiment with HLA-A*02:01 [10] turned out to be 0.12 µM; with HLA-A*02:16, 0.0601 µM.

Consider EIFPNIKIY, for which the Kd with HLA-A*01:01 (setting [11]) is at least 20 µM; in the experiment with HLA-A*02:01 [1] (setting [11]), at least 20 µM; with HLA-A*03:01 (setting [11]) it was at least 20 µM; with HLA-A*11:01 (setting [11]), at least 20 µM; with HLA-A*26:01 (setting [11]) it was 0.0738 µM; with HLA-A*31:01 (setting [11]), at least 20 µM. Also, the Kd in the experiment with HLA-A*69:01 (setting [11]) is at least 20 µM; with HLA-B*07:02 (setting [11]), at least 20 µM; in the experiment with HLA-B*08:01 [2] (setting [11]), at least 20 µM; in the experiment with HLA-B*15:01 [3] (setting [11]), 0.465 µM; with HLA-B*27:05 (setting [11]) it was at least 20 µM; with HLA-B*35:01 [4] (setting [11]), 0.164 µM. Also, the Kd with HLA-B*40:01 (setting [11]), in the experiment with HLA-B*44:02 (setting [11]) and with HLA-B*58:01 [5] (setting [11]) was at least 20 µM in each case.

On to SVFTGLLPF, for which the equilibrium dissociation constant (Kd) with HLA-C*07:02 (setting [16]) was found to be 0.507 µM; in the experiment with HLA-C*14:02 (setting [16]), 0.56 µM; with HLA-C*15:02 it was 12.3 µM.

Consider RYWYFAAEL, for which the dissociation constant (Kd) worked out at 1.01 µM in the experiment with HLA-C*07:02 (setting [17]) and 0.015 µM in the experiment with HLA-C*14:02 (setting [17]).

In turn, DLLKPNYAL showed a Kd in the experiment with HLA-B*08:01 [6] (setting [12]) of 4.02 µM.
